B1: wild-type Bacillus subtilis Spo0J (BsSpo0J) (natural protein)
chain: MAKGLGKGINALFNQVDLSEETVEEIKIADLRPNPYQPRKHFDDEALAELKESVLQHGILQPLIVRKSLKGYDIVAGERRFRAAKLAGLDTVPAIVRELSEALMREIALLENLQREDLSPLEEAQAYDSLLKHLDLTQEQLAKRLGKSRPHIANHLRLLTLPENIQQLIAEGTLSMGHGRTLLGLKNKNKLEPLVQKVIAEQLNVRQLEQLIQQLNQNVPRETKKKEPVKDAVLKERESYLQNYFGTTVNIKRQKKKGKIEIEFFSNEDLDRILELLSERES
B2: BsSpo0J R79A (natural protein)
chain: MAKGLGKGINALFNQVDLSEETVEEIKIADLRPNPYQPRKHFDDEALAELKESVLQHGILQPLIVRKSLKGYDIVAGEARFRAAKLAGLDTVPAIVRELSEALMREIALLENLQREDLSPLEEAQAYDSLLKHLDLTQEQLAKRLGKSRPHIANHLRLLTLPENIQQLIAEGTLSMGHGRTLLGLKNKNKLEPLVQKVIAEQLNVRQLEQLIQQLNQNVPRETKKKEPVKDAVLKERESYLQNYFGTTVNIKRQKKKGKIEIEFFSNEDLDRILELLSERES
B3: BsSpo0J R105E (natural protein)
chain: MAKGLGKGINALFNQVDLSEETVEEIKIADLRPNPYQPRKHFDDEALAELKESVLQHGILQPLIVRKSLKGYDIVAGERRFRAAKLAGLDTVPAIVRELSEALMEEIALLENLQREDLSPLEEAQAYDSLLKHLDLTQEQLAKRLGKSRPHIANHLRLLTLPENIQQLIAEGTLSMGHGRTLLGLKNKNKLEPLVQKVIAEQLNVRQLEQLIQQLNQNVPRETKKKEPVKDAVLKERESYLQNYFGTTVNIKRQKKKGKIEIEFFSNEDLDRILELLSERES
B4: BsSpo0J G77S (natural protein)
chain: MAKGLGKGINALFNQVDLSEETVEEIKIADLRPNPYQPRKHFDDEALAELKESVLQHGILQPLIVRKSLKGYDIVASERRFRAAKLAGLDTVPAIVRELSEALMREIALLENLQREDLSPLEEAQAYDSLLKHLDLTQEQLAKRLGKSRPHIANHLRLLTLPENIQQLIAEGTLSMGHGRTLLGLKNKNKLEPLVQKVIAEQLNVRQLEQLIQQLNQNVPRETKKKEPVKDAVLKERESYLQNYFGTTVNIKRQKKKGKIEIEFFSNEDLDRILELLSERES
B5: BsSpo0J P62A (natural protein)
chain: MAKGLGKGINALFNQVDLSEETVEEIKIADLRPNPYQPRKHFDDEALAELKESVLQHGILQALIVRKSLKGYDIVAGERRFRAAKLAGLDTVPAIVRELSEALMREIALLENLQREDLSPLEEAQAYDSLLKHLDLTQEQLAKRLGKSRPHIANHLRLLTLPENIQQLIAEGTLSMGHGRTLLGLKNKNKLEPLVQKVIAEQLNVRQLEQLIQQLNQNVPRETKKKEPVKDAVLKERESYLQNYFGTTVNIKRQKKKGKIEIEFFSNEDLDRILELLSERES

Molecular target: the molecule itself
Assay: SEC

Stoichiometry N, 2:
B1
B2
B3
B4
B5

Source: article PMC5499601 (Nucleic Acids Research, 2017)
